Measured values as given in patent US20240116985A1, “STAPLED PEPTIDES AND METHODS THEREOF” (priority 2020, published 2024).
Starred links: 1 amine or outer side, 2 acyl side, 3 side chain; linkers in the order of their positions; H or OH if unused. Positions of bridges follow the written chain, without caps; N, C: chain ends. Non-standard residues stand in square brackets, D forms with d. Primed or numbered codes have the meaning given here. No end group written: not given here. *: point of attachment. PyrS2″ = (S)-3-amino-1-((pent-4-en-1-yloxy)carbonyl)pyrrolidine-3-carboxylic acid (stapling residue), C=CCCCOC(=O)N1CC[C@@](N[*:1])(C(=O)[*:2])C1; B5(30) = 2-amino-2-(pent-4-en-1-yl)hept-6-enoic acid (2,2-bis(4-pentenyl)glycine, stitching residue), C=CCCCC(CCCC=C)(N[*:1])C(=O)[*:2]; B5(4) = 2,2-bis(4-pentenyl)glycine = 2-amino-2-(pent-4-en-1-yl)hept-6-enoic acid (stitching residue), C=CCCCC(CCCC=C)(N[*:1])C(=O)[*:2]; B5(5) = 2,2-bis(4-pentenyl)glycine, 2-amino-2-(pent-4-en-1-yl)hept-6-enoic acid (stitching residue), C=CCCCC(CCCC=C)(N[*:1])C(=O)[*:2]; TfeGA = (S)-2-amino-3-((carboxymethyl)(2,2,2-trifluoroethyl)amino)propanoic acid, O=C([C@H](CN(CC(=O)[*:3])CC(F)(F)F)N[*:1])[*:2]; PyrS2 = (S)-3-amino-1-((pent-4-en-1-yloxy)carbonyl)pyrrolidine-3-carboxylic acid, C=CCCCOC(=O)N1CC[C@@](N[*:1])(C(=O)[*:2])C1; MePpzAsn = (S)-2-amino-4-(4-methylpiperazin-1-yl)-4-oxobutanoic acid, CN1CCN(C(=O)C[C@H](N[*:1])C(=O)[*:2])CC1; F2PipNva = (S)-2-amino-5-(4,4-difluoropiperidin-1-yl)pentanoic acid, O=C([C@H](CCCN1CCC(F)(F)CC1)N[*:1])[*:2]; B5(25) = 2-amino-2-(pent-4-en-1-yl)hept-6-enoic acid (stitching residue), C=CCCCC(CCCC=C)(N[*:1])C(=O)[*:2]; B5(3) = 2,2-bis(4-pentenyl)glycine (stitching residue), C=CCCCC(CCCC=C)(N[*:1])C(=O)[*:2]; B5 = 2-amino-2-(pent-4-en-1-yl)hept-6-enoic acid, C=CCCCC(CCCC=C)(N[*:1])C(=O)[*:2]; ProSAm3 = (allylsulfonyl)-D-proline, C=CCS(=O)(=O)N1CCC[C@@H]1C(=O)*; Nva(5-morpholino) = N[C@@H](CCCN1CCOCC1)C(=O)O; Phe(3-COOH) = N[C@@H](Cc1cccc(C(=O)O)c1)C(=O)O; 2F3MeF = Cc1cccc(C[C@H](N[*:1])C(=O)[*:2])c1F; Phe(2-CF3) = N[C@@H](Cc1ccccc1C(F)(F)F)C(=O)O; Phe(2-Cl) = N[C@@H](Cc1ccccc1Cl)C(=O)O; Bta = N[C@@H](Cc1csc2ccccc12)C(=O)O; Lys(iPr) = CC(C)NCCCC[C@H](N)C(=O)O; αAllylPro = C=CC[C@@]1(C(=O)O)CCCN1; Azidoacetyl = [N-]=[N+]=NCC(=O)*; tBuAla = CC(C)(C)C[C@H](N)C(=O)O; 3Thi = N[C@@H](Cc1ccsc1)C(=O)O; hSer = N[C@@H](CCO)C(=O)O; Ac3c = NC1(C(=O)O)CC1

B1: I-2267 (peptide)
peptide: [ProSAm3]D[tBuAla][B5(3)]D[TfeGA]AAFL[PyrS2″][3Thi][Bta]Q-NH2
modifications: staple (positions not given here); staple 4-11; not fully specified (bridges); also: staple double bonds reduced to -CH2-CH2-

Molecular target: full-length beta-Catenin (Uniprot ID P35222) (Homo sapiens (Human)) (UniProt P35222)
Experiment: fluorescence polarization competition; 10 nM full-length beta-catenin + 10 nM 5FAM-TCF4(10-53) probe
Target sequence in this assay (P35222 whole entry): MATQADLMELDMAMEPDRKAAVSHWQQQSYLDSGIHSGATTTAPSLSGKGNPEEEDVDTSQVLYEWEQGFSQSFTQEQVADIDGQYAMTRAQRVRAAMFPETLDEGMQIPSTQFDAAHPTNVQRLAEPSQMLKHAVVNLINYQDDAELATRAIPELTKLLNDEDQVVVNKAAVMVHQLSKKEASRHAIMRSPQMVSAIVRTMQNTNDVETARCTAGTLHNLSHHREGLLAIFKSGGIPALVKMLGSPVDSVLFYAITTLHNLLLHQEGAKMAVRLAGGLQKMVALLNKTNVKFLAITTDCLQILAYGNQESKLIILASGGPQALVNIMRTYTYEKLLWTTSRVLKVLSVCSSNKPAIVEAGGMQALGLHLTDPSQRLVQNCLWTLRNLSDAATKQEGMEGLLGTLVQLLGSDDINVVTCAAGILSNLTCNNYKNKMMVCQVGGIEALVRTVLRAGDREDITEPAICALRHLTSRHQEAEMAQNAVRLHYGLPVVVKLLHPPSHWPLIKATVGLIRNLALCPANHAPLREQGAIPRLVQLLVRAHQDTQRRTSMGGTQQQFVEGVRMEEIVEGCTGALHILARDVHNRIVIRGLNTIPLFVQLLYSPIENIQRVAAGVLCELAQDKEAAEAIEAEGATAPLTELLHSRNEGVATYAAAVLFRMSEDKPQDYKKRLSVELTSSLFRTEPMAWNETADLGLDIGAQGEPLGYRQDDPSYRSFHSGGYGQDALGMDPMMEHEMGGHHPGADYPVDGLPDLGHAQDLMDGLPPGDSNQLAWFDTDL

| Binder | EC50 [nM] |
| --- | --- |
| Ac-[αAllylPro]D[tBuAla][B5]D[TfeGA]AAFN[PyrS2][3Thi][Bta]Y-NH2 (staple 1-4, 4-11; also: later-eluting staple isomer composition) [I-953] | 1460 |
| Ac-[αAllylPro]D[tBuAla][B5(25)]D[TfeGA]AAFF[PyrS2″][3Thi][Bta]S-NH2 (staple 1-4, 4-11; also: earlier-eluting HPLC staple isomer) [I-962] | 407 |
| Ac-[αAllylPro]D[tBuAla][B5]D[TfeGA]AAFT[PyrS2][3Thi][Bta]S-NH2 (staple 1-4, 4-11; also: earlier-eluting staple isomer composition) [I-956] | 1090 |
| Ac-[αAllylPro]D[tBuAla][B5]D[TfeGA]AAFN[PyrS2][3Thi][Bta]Y-NH2 (staple 1-4, 4-11; also: earlier-eluting staple isomer composition) [I-952] | 1210 |
| Ac-[αAllylPro]D[tBuAla][B5]D[TfeGA]AAFS[PyrS2][3Thi][Bta]S-NH2 (staple 1-4, 4-11; also: earlier-eluting staple isomer composition) [I-954] | 900 |
| Ac-[αAllylPro]D[tBuAla][B5]D[TfeGA]AAF[hSer][PyrS2][3Thi][Bta]S-NH2 (staple 1-4, 4-11; also: later-eluting staple isomer composition) [I-959] | 881 |
| Ac-[αAllylPro]D[tBuAla][B5]D[TfeGA]AAFT[PyrS2][3Thi][Bta]S-NH2 (staple 1-4, 4-11; also: later-eluting staple isomer composition) [I-957] | 1430 |
| Ac-[αAllylPro]D[tBuAla][B5(25)]D[TfeGA]AAFF[PyrS2″][3Thi][Bta]S-NH2 (staple 1-4, 4-11; not fully specified) [I-963] | 402 |
| Ac-[αAllylPro]D[tBuAla][B5]D[TfeGA]AAF[hSer][PyrS2][3Thi][Bta]S-NH2 (staple 1-4, 4-11; also: earlier-eluting staple isomer composition) [I-958] | 606 |
| Ac-[αAllylPro]D[tBuAla][B5]D[TfeGA]AAFS[PyrS2][3Thi][Bta]S-NH2 (staple 1-4, 4-11; also: later-eluting staple isomer composition) [I-955] | 1200 |

Molecular target: full-length beta-Catenin (Uniprot ID P35222) (Homo sapiens (Human)) (UniProt P35222)
Experiment: fluorescence polarization competition against 5FAM-TCF4 10-53 on full-length beta-catenin
Target sequence in this assay (P35222 whole entry): as above

| Binder | IC50 [nM] |
| --- | --- |
| Ac-[αAllylPro]N[tBuAla][B5(4)]DT[Lys(iPr)]AFF[PyrS2]F[Bta]Q-NH2 (staple 1-4, 4-11) [I-1599] | 1080 |
| Ac-[αAllylPro]D[tBuAla][B5(4)]D[Phe(3-COOH)]AAFL[PyrS2][2F3MeF][Bta][F2PipNva]-NH2 (staple 1-4, 4-11) [I-1608] | 76 |
| Ac-[αAllylPro]N[tBuAla][B5(4)]DT[Lys(iPr)]AFN[PyrS2]F[Bta]Q-NH2 (staple 1-4, 4-11) [I-1602] | 362 |
| Ac-[αAllylPro]N[tBuAla][B5(4)]DT[Lys(iPr)]ASL[PyrS2]F[Bta]Q-NH2 (staple 1-4, 4-11) [I-1597] | 6990 |
| Ac-[αAllylPro]N[tBuAla][B5(4)]DT[Lys(iPr)]AFS[PyrS2]F[Bta]Q-NH2 (staple 1-4, 4-11) [I-1601] | 2020 |
| Ac-[αAllylPro]D[tBuAla][B5(3)]D[TfeGA]AAFT[PyrS2″][Phe(2-Cl)][Bta][MePpzAsn]-NH2 (staple 1-4, 4-11) [I-1611] | 10 |
| Ac-[αAllylPro]D[tBuAla][B5(3)]D[Phe(3-COOH)]AAFL[PyrS2][2F3MeF][Bta][Nva(5-morpholino)]-NH2 (staple 1-4, 4-11) [I-1610] | 19 |
| Ac-[αAllylPro]D[tBuAla][B5(3)]D[Phe(3-COOH)]AAFL[PyrS2″][2F3MeF][Bta][MePpzAsn]-NH2 (staple 1-4, 4-11) [I-1612] | 10 |
| Ac-[αAllylPro]N[tBuAla][B5(4)]DT[Lys(iPr)]AFW[PyrS2]F[Bta]Q-NH2 (staple 1-4, 4-11) [I-1600] | 4290 |
| Ac-[αAllylPro]D[tBuAla][B5(3)]D[TfeGA]AAFT[PyrS2][Phe(2-Cl)][Bta][Nva(5-morpholino)]-NH2 (staple 1-4, 4-11) [I-1609] | 15 |
| Ac-[αAllylPro]D[tBuAla][B5(4)]D[TfeGA]AAFT[PyrS2][Phe(2-Cl)][Bta][F2PipNva]-NH2 (staple 1-4, 4-11) [I-1607] | 49 |

Molecular target: full-length beta-Catenin (Uniprot ID P35222) (Homo sapiens (Human)) (UniProt P35222)
Experiment: fluorescence polarization competition vs 5FAM-TCF4(10-53) on full-length beta-catenin

| Binder | IC50 [nM] | EC50 [nM] |
| --- | --- | --- |
| Ac-[αAllylPro]D[tBuAla][B5]D[TfeGA]AAFN[PyrS2][3Thi][Bta]Y-NH2 (staple 1-4, 4-11; also: later-eluting staple isomer composition) [I-953] | 1460 | – |
| Ac-[αAllylPro]D[tBuAla][B5(25)]D[TfeGA]AAFF[PyrS2″][3Thi][Bta]S-NH2 (staple 1-4, 4-11; also: earlier-eluting HPLC staple isomer) [I-962] | 407 | – |
| Ac-[αAllylPro]D[tBuAla][B5]D[TfeGA]AAFT[PyrS2][3Thi][Bta]S-NH2 (staple 1-4, 4-11; also: earlier-eluting staple isomer composition) [I-956] | 1090 | – |
| Ac-[αAllylPro]D[tBuAla][B5(5)]NTAAFN[PyrS2″][3Thi]WQ-NH2 (staple 1-4, 4-11; also: separately listed staple isomer composition) [I-1876] | 1340 | – |
| Ac-[αAllylPro]D[tBuAla][B5]D[TfeGA]AAFN[PyrS2][3Thi][Bta]Y-NH2 (staple 1-4, 4-11; also: earlier-eluting staple isomer composition) [I-952] | 1210 | – |
| Ac-[αAllylPro]DK(Azidoacetyl)[B5(4)]DDAAFN[PyrS2″][3Thi][Bta]Q-NH2 (staple 1-4, 4-11) [I-880] | – | 6 |
| Ac-[αAllylPro]D[tBuAla][B5]D[TfeGA]AAFS[PyrS2][3Thi][Bta]S-NH2 (staple 1-4, 4-11; also: earlier-eluting staple isomer composition) [I-954] | 900 | – |
| Ac-[αAllylPro]D[tBuAla][B5(30)]NTAAFN[PyrS2][3Thi][Bta]L-NH2 (staple 1-4, 4-11; also: later-eluting HPLC isomer) [I-1881] | 743 | – |
| Ac-[αAllylPro]D[tBuAla][B5]D[TfeGA]AAF[hSer][PyrS2][3Thi][Bta]S-NH2 (staple 1-4, 4-11; also: later-eluting staple isomer composition) [I-959] | 881 | – |
| Ac-[αAllylPro]D[tBuAla][B5]D[TfeGA]AAFT[PyrS2][3Thi][Bta]S-NH2 (staple 1-4, 4-11; also: later-eluting staple isomer composition) [I-957] | 1430 | – |
| Ac-[αAllylPro]D[tBuAla][B5(25)]D[TfeGA]AAFF[PyrS2″][3Thi][Bta]S-NH2 (staple 1-4, 4-11; not fully specified) [I-963] | 402 | – |
| Ac-[αAllylPro]D[tBuAla][B5]D[TfeGA]AAF[hSer][PyrS2][3Thi][Bta]S-NH2 (staple 1-4, 4-11; also: earlier-eluting staple isomer composition) [I-958] | 606 | – |
| Ac-[αAllylPro]D[tBuAla][B5(30)]NTAAFR[PyrS2][3Thi][Bta]Q-NH2 (staple 1-4, 4-11; also: earlier-eluting HPLC isomer) [I-1882] | 397 | – |
| Ac-[αAllylPro]D[tBuAla][B5(30)]NTAAFN[PyrS2][3Thi][Bta]L-NH2 (staple 1-4, 4-11; also: earlier-eluting HPLC isomer) [I-1880] | 868 | – |
| Ac-[αAllylPro]D[tBuAla][B5(4)]DDK(Azidoacetyl)AFN[PyrS2″][3Thi][Bta]Q-NH2 (staple 1-4, 4-11) [I-879] | – | 6 |
| Ac-[αAllylPro]D[tBuAla][B5(5)]NTAAFN[PyrS2″][3Thi]WQ-NH2 (staple 1-4, 4-11; also: separately listed staple isomer composition) [I-1877] | 1520 | – |
| Ac-[αAllylPro]D[tBuAla][B5(30)]NTAAFN[PyrS2″][3Thi][Bta]V-NH2 (staple 1-4, 4-11; also: later-eluting HPLC isomer) [I-1879] | 567 | – |
| Ac-[αAllylPro]D[tBuAla][B5]D[TfeGA]AAFS[PyrS2][3Thi][Bta]S-NH2 (staple 1-4, 4-11; also: later-eluting staple isomer composition) [I-955] | 1200 | – |
| Ac-[αAllylPro]D[tBuAla][B5(30)]NTAAFR[PyrS2][3Thi][Bta]Q-NH2 (staple 1-4, 4-11; also: later-eluting HPLC isomer) [I-1883] | 884 | – |
| Ac-[αAllylPro]D[tBuAla][B5(5)]NTAAFN[PyrS2″][3Thi][Bta]V-NH2 (staple 1-4, 4-11; also: separately listed staple isomer composition) [I-1878] | 458 | – |
| Ac-[αAllylPro]D[tBuAla][B5(4)]DDAAFN[PyrS2″][3Thi][Bta]K(Azidoacetyl)-NH2 (staple 1-4, 4-11) [I-878] | – | 6 |

Molecular target: full-length beta-Catenin (Uniprot ID P35222) (Homo sapiens (Human)) (UniProt P35222)
Experiment: fluorescence polarization competition; full-length beta-catenin, competitor 5FAM-TCF4(10-53)

| Binder | IC50 [nM] |
| --- | --- |
| B1 | 499 |
| Ac-[αAllylPro]D[tBuAla][B5(5)]D[Phe(3-COOH)]AAFL[PyrS2″][Phe(2-CF3)][Bta]QL[Ac3c]-NH2 (staple 1-4, 4-11) [I-2389] | 72 |
